Reference: publication PMC12098869, “An mRNA-display derived cyclic peptide scaffold reveals the substrate binding interactions of an N-terminal cysteine oxidase” (Nature Communications, 2025)
Where a chain is given by its changes, count along the chain named. Several values for one entry are separate records, joined by “and”; a condition that tells them apart may be missing. Equal values may be shown once.

T1: ADO-Y212A, biotinylated (pQE80L-Navi-ADO) (human, UniProt Q96SZ5 1-270, Y212A, biotin on the Avi tag)
T1 construct: Tag as in Dm1; source: E. coli Rosetta2(DE3), purified (Ni-NTA, SEC); not shown: Avi tag, N-terminal, kept; His6, N-terminal, kept
T1 sequence (looked up): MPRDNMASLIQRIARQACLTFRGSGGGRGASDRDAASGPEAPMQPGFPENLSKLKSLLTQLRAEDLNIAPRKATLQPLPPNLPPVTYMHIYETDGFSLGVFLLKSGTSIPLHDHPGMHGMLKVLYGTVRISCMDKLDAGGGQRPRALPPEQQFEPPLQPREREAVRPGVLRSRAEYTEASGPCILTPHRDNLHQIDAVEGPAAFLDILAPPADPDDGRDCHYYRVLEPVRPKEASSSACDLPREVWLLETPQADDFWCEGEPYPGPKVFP

T2: ADO-Y212F, biotinylated (pQE80L-Navi-ADO) (human, UniProt Q96SZ5 1-270, Y212F, biotin on the Avi tag)
T2 construct: Tag as in Dm1; source: E. coli Rosetta2(DE3), purified (Ni-NTA, SEC); not shown: Avi tag, N-terminal, kept; His6, N-terminal, kept
T2 sequence (looked up): T1 sequence (looked up) with A212F

T3: ADO-F101A, biotinylated (pQE80L-Navi-ADO) (human, UniProt Q96SZ5 1-270, F101A, biotin on the Avi tag)
T3 construct: Tag as in Dm1; source: E. coli Rosetta2(DE3), purified (Ni-NTA, SEC); not shown: Avi tag, N-terminal, kept; His6, N-terminal, kept
T3 sequence (looked up): T1 sequence (looked up) with F101A, A212Y

T4: ADO-F256A, N-terminally His-tagged and biotinylated (human, UniProt Q96SZ5 1-270, F256A, biotin (biotinylated during expression))
T4 construct: 2-aminoethanethiol dioxygenase (ADO), human, UniProt Q96SZ5, full length, site-directed mutant; source: E. coli Rosetta2(DE3), purified (Ni-NTA, SEC); not shown: biotinylation tag (from the vector pQE80L-Navi), N-terminal, kept
T4 sequence (looked up): T1 sequence (looked up) with A212Y, F256A

T5: ADO-C220A, N-terminally His-tagged and biotinylated (human, UniProt Q96SZ5 1-270, C220A, biotin (biotinylated during expression))
T5 construct: 2-aminoethanethiol dioxygenase (ADO), human, UniProt Q96SZ5, full length, site-directed mutant; source: E. coli Rosetta2(DE3), purified (Ni-NTA, SEC); not shown: biotinylation tag (from the vector pQE80L-Navi), N-terminal, kept
T5 sequence (looked up): T1 sequence (looked up) with A212Y, C220A

B1: RGS5_(2-15), synthetic peptide corresponding to the methionine excised N-terminus of RGS5, residues 2 to 15 (peptide, UniProt O15539 2-15, looked up)
peptide: CKGLAALPHSCLER
notes: Regulator of G-protein signalling 5 (RGS5), residues 2 to 15, N-terminal Cys; also called RGS5 peptide; source: synthetic peptide
B2: IL32_(2-15), synthetic peptide corresponding to the methionine excised N-terminus of IL32, residues 2-15 (peptide, UniProt P24001 2-15, looked up)
peptide: CFPKVLSDDMKKLK
notes: Interleukin 32 (IL32), residues 2-15, N-terminal Cys; also called IL32 peptide; source: synthetic peptide
B3: IL32(2-15), synthetic peptide corresponding to the methionine excised N-terminus of IL32, residues 2-15 (peptide, UniProt P24001 2-15, looked up)
peptide: CFPKVLSDDMKKLK
notes: interleukin 32 (IL32), residues 2-15 (N-terminal Cys exposed); also called 14-mer IL32; source: synthetic peptide

Experiments:
Conditions in all cases: both partners purified
[1] = molecular target: T1, ADO-Y212A, biotinylated …; assay: SPR; multi-cycle, equilibrium steady state affinity 1:1 binding model; biotinylated ADO or variant immobilised on a Biotin CAP chip (~2500-3000 RU), peptide injected; 4 °C; 20 mM HEPES pH 7.5, 500 mM NaCl, 10 mM DTT, 0.1% (v/v) tween-20; 50 μL/minute
Summary of the method: (§1)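 Biotinylated full-length human ADO (wild type or engineered forms) was made in E. coli with a His tag, then purified by nickel affinity and gel filtration. It was captured on a Biotin CAP chip at about 2500–3000 RU in a Biacore T200, and peptides were flowed over it. The run was at 4 °C in HEPES pH 7.5 buffer with 500 mM NaCl, DTT and tween-20, at 50 μL/minute. Kd came from a 1:1 steady-state fit of multi-cycle equilibrium responses.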

[2] = molecular target: T2, ADO-Y212F, biotinylated …; assay: as above
Summary of the method: as §1

[3] = molecular target: T3, ADO-F101A, biotinylated …; assay: as above
Summary of the method: as §1

[4] = molecular target: T4, ADO-F256A, N-terminally His-tagged and …; assay: SPR; biotinylated ADO or ADO mutant immobilised on a Biotin CAP chip (~2500-3000 RU), substrate peptide injected; Biacore T200, 4 °C; 20 mM HEPES pH 7.5, 500 mM NaCl, 10 mM DTT, 0.1% tween-20; 50 µL/minute; multi-cycle or single-cycle mode not given; each cell is one of three independent measurements
[5] = molecular target: T5, ADO-C220A, N-terminally His-tagged and …; assay: as above

| Binder | Kd [1] | Kd [2] | Kd [3] | Kd [4] | Kd [5] |
| --- | --- | --- | --- | --- | --- |
| B1 | 72 µM | 24 µM | 47 µM | – | – |
| B2 | 29 µM | 9.2 µM | 37 µM | – | – |
| B3 | – | – | – | 751 nM and 900 nM and 973 nM | 1440 nM and 1180 nM and 1430 nM |
